Data on 1 substance can be found in FireProtDB (doi:10.1006/jmbi.2001.4993).

For this series the following is noted: Equus caballus, pH 7, 10 °C, GdnHCl, sodium dithionite 0.5-2 mM, reversible: yes.

Chain of Cytochrome c wild type, P00004 (P00004 whole entry): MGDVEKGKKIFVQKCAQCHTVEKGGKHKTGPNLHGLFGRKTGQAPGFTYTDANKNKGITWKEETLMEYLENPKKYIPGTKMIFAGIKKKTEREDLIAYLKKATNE

As for Cytochrome c wild type, P00004, the “denaturant midpoint (higher = more stable)” value is, setting by setting: (Absorbance) 5.1 M; (Absorbance, transition: 3) 5.01 M; (Fluorescence) 5.1 M; (Fluorescence, transition: 3) 5.02 M. For the same substance, the unfolding free energy reads like this: (Absorbance) 18.8 kcal/mol; (Fluorescence) 18.8 kcal/mol.
